Series [1] deals with the molecule itself. The series is described as follows: SEC; analytical gel filtration, Superdex 75 10/300 GL, no reducing agent, pH 4.0 and pH 7.0, dimeric protein concentration 2 mg/ml (also 0.05 and 0.25 mg/ml, Fig. S1). A general note: SEC sorts molecules by how far they enter the pores of the column.
Series [2] deals with T1, TipαN25 (wild type) (Helicobacter pylori 26695, UniProt O25318 25-192). Put plainly: ITC; pH 5.0; n about 1; ITC: 50 mM citric acid/Na citrate pH 5.0, 150 mM NaCl, 25 °C; SPR: 50 mM Hepes pH 7.0, 150 mM NaCl, 0.005% Tween20, 25 °C. Conditions: protein: recombinant; tags: C-terminal LE-6xHis; chain copies: 2. Background: In ITC the heat of successive injections is recorded.

Series [3] addresses T2, TipαN25 H60A (Helicobacter pylori 26695, UniProt O25318 25-192, H60A). Put plainly: ITC; pH 5.0; n=0.5; ITC: 50 mM citric acid/Na citrate pH 5.0, 150 mM NaCl, 25 °C; SPR: 50 mM Hepes pH 7.0, 150 mM NaCl, 0.005% Tween20, 25 °C. Conditions: protein: recombinant; tags: C-terminal LE-6xHis; chain copies: 2; called ssDNA by authors; self-complementary repeat.
For series [4], the target named is TipαN25 K104A (Helicobacter pylori 26695, UniProt O25318 25-192, K104A). Put plainly: ITC; pH 5.0; n=0.87; ITC: 50 mM citric acid/Na citrate pH 5.0, 150 mM NaCl, 25 °C; SPR: 50 mM Hepes pH 7.0, 150 mM NaCl, 0.005% Tween20, 25 °C. To be noted: protein: recombinant; tags: C-terminal LE-6xHis; chain copies: 2; called ssDNA by authors; self-complementary repeat.
Series [5] deals with TipαN25 R77A (Helicobacter pylori 26695, UniProt O25318 25-192, R77A). Put plainly: ITC; pH 5.0; n=0.477; ITC: 50 mM citric acid/Na citrate pH 5.0, 150 mM NaCl, 25 °C; SPR: 50 mM Hepes pH 7.0, 150 mM NaCl, 0.005% Tween20, 25 °C. Conditions: protein: recombinant; tags: C-terminal LE-6xHis; chain copies: 2; called ssDNA by authors; self-complementary repeat.
In series [6] the target is TipαN25 R77A/R81A (Helicobacter pylori 26695, UniProt O25318 25-192, R77A;R81A). Put plainly: ITC; pH 5.0; n=0.491; ITC: 50 mM citric acid/Na citrate pH 5.0, 150 mM NaCl, 25 °C; SPR: 50 mM Hepes pH 7.0, 150 mM NaCl, 0.005% Tween20, 25 °C. Conditions: protein: recombinant; tags: C-terminal LE-6xHis; chain copies: 2; called ssDNA by authors; self-complementary repeat.
In series [7] the target is TipαN25 K65A/K66A (Helicobacter pylori 26695, UniProt O25318 25-192, K65A;K66A). The series is described as follows: ITC; pH 5.0; n=0.921; ITC: 50 mM citric acid/Na citrate pH 5.0, 150 mM NaCl, 25 °C; SPR: 50 mM Hepes pH 7.0, 150 mM NaCl, 0.005% Tween20, 25 °C. Conditions: protein: recombinant; tags: C-terminal LE-6xHis; chain copies: 2; called ssDNA by authors; self-complementary repeat.

In series [8] the target is T1, TipαN25 (wild type). Put plainly: ITC; pH 5.0; n=0.925 dimer per DNA; ITC: 50 mM citric acid/Na citrate pH 5.0, 150 mM NaCl, 25 °C; SPR: 50 mM Hepes pH 7.0, 150 mM NaCl, 0.005% Tween20, 25 °C. To be noted: protein: recombinant; tags: C-terminal LE-6xHis; chain copies: 2; called ssDNA by authors; self-complementary repeat.
The target of series [9] is T1, TipαN25 (wild type). Put plainly: ITC; pH 5.0; n=1.47; ITC: 50 mM citric acid/Na citrate pH 5.0, 150 mM NaCl, 25 °C; SPR: 50 mM Hepes pH 7.0, 150 mM NaCl, 0.005% Tween20, 25 °C. Conditions: protein: recombinant; tags: C-terminal LE-6xHis; chain copies: 2; called ssDNA by authors; self-complementary repeat.
The target in series [10] is T2, TipαN25 H60A. The series is described as follows: SPR; pH 7.0; ka 2.9 M-1 s-1, kd 1.75E-04 s-1; ITC: 50 mM citric acid/Na citrate pH 5.0, 150 mM NaCl, 25 °C; SPR: 50 mM Hepes pH 7.0, 150 mM NaCl, 0.005% Tween20, 25 °C. To be noted: protein: recombinant; tags: C-terminal LE-6xHis; chain copies: 2; label: 5' biotin; called ssDNA by authors; self-complementary repeat.
For series [11], the target named is T1, TipαN25 (wild type). The series is described as follows: ITC; pH 5.0; n=1.17; ITC: 50 mM citric acid/Na citrate pH 5.0, 150 mM NaCl, 25 °C; SPR: 50 mM Hepes pH 7.0, 150 mM NaCl, 0.005% Tween20, 25 °C. To be noted: protein: recombinant; tags: C-terminal LE-6xHis; chain copies: 2; called ssDNA by authors; self-complementary repeat.

B1: TipαN^25 (N-terminal-truncated TNF-α-inducing protein Tipα starting from residue Cys25) (domain or fragment)
chain: CTCPNTSQRNSFLQDVPYWMLQNRSEYITQGVDSSHIVDGKKTEEIEKIATKRATIRVAQNIVHKLKEAYLSKTNRIKQKITNEMFIQMTQPIYDSLMNVDRLGIYINPNNEEVFALVRARGFDKDALSEGLHKMSLDNQAVSILVAKVEEIFKDSVNYGDVKVPIAM
notes: Tipα (TNF-α-inducing protein), Helicobacter pylori strain 26695, gene 0596, 192 amino acids; residues 25-192 (Δ1–24), amplified from genomic DNA into pET22b(+); The entry is the single chain (protomer); A SeMet form (E. coli B834) was used only for phasing; also called Tipα (Δ1–24); native TipαN^25; source: E. coli BL21 (DE3), purified (Ni-NTA, Hitrap SP cation exchange, Superdex 75)
As a reminder, the stoichiometry N is a count of units in the complex or per binding partner. With B1, the “stoichiometry N” value in series [1] was found to be 2.

B2: 20 bp dsDNA (dsDNA)
DNA 1: GCCTTGCCGCCGCCCTTGCC
DNA 2: GGCAAGGGCGGCGGCAAGGC
As to B2, the Ka in series [2] was 1.02e+06 M⁻¹.

B3: (dGdC)10, 20 nt (ssDNA)
DNA: GCGCGCGCGCGCGCGCGCGC
Regarding B3, the Ka was determined as 28200 M⁻¹ in [3]; 631000 M⁻¹ in series [4]; 479000 M⁻¹ in series [5]; 140000 M⁻¹ in series [6]; 261000 M⁻¹ in series [7]; 1.04e+06 M⁻¹ in series [8].

B4: (dGdC)30, 60 nt (ssDNA)
DNA: GCGCGCGCGCGCGCGCGCGCGCGCGCGCGCGCGCGCGCGCGCGCGCGCGCGCGCGCGCGC
As to B4, the Ka in series [9] is 1.03e+06 M⁻¹.

B5: 5'-biotin (dGdC)10, 20 nt (ssDNA)
DNA: GCGCGCGCGCGCGCGCGCGC
What is called Kd is the constant that tells how readily two partners part at equilibrium. With B5, the Kd in [10] came out at 60.3 µM.

B6: (dGdC)20, 40 nt (ssDNA)
DNA: GCGCGCGCGCGCGCGCGCGCGCGCGCGCGCGCGCGCGCGC
Regarding B6, the Ka in series [11] turned out to be 937000 M⁻¹.

The values above are taken from PMC3409205, “Crystal Structure of TNF-α-Inducing Protein from Helicobacter Pylori in Active Form Reveals the Intrinsic Molecular Flexibility for Unique DNA-Binding” (PLoS ONE, 2012).
